Stoichiometry N data for two substances are collected here from publication PMC8395497.

What is called stoichiometry N is the number of molecules, sites or subunits per partner or assembly.

Assay [1] concerns the target Halichondria panicea ferritin HpF1 (Halichondria panicea (endogenous in sponge body tissue)). Description: native gel or EMSA; sponge body tissue homogenates (20 mM EDTA, 50 mM Hepes-Na pH 7.2, 200 mM NaCl, 4 °C) on a native 3.5-10% polyacrylamide gradient gel in 50 mM Bis-Tris-glycine pH 8.0; Prussian blue staining and UV 360 nm absorbance; markers horse ferritin (440 kDa) and thyroglobulin (670 kDa); high molecular mass bands cut out and identified by MALDI/TOF mass spectrometry. In general terms: Mobility shift assays separate free from complexed probe on a gel.

The target of assay [2] is Halisarca dujardini ferritin HdF1a/b (Halisarca dujardini (endogenous in sponge body tissue)). Described as above.

“Halichondria panicea ferritin HpF1 (natural protein)”: the stoichiometry N in assay [1] turned out to be 24 subunits.
Substance “Halisarca dujardini ferritin HdF1a/b (natural protein)” came in with a stoichiometry N in assay [2] of 24 subunits.
